The text below walks through data of PMC3060787.

What is called Kd is the free concentration of one partner at which half of the binding sites on the other are occupied at equilibrium, for simple one-to-one binding. Read a high Kd as weaker binding.

Where two headings read alike, the source gives them in different places.

Holding throughout (assay): smFRET
Series [1] concerns the target T1, Taq MutS(C42A,T469C)-Cy3 (Thermus aquaticus, UniProt Q56215 1-811, C42A;T469C).
T1 sequence: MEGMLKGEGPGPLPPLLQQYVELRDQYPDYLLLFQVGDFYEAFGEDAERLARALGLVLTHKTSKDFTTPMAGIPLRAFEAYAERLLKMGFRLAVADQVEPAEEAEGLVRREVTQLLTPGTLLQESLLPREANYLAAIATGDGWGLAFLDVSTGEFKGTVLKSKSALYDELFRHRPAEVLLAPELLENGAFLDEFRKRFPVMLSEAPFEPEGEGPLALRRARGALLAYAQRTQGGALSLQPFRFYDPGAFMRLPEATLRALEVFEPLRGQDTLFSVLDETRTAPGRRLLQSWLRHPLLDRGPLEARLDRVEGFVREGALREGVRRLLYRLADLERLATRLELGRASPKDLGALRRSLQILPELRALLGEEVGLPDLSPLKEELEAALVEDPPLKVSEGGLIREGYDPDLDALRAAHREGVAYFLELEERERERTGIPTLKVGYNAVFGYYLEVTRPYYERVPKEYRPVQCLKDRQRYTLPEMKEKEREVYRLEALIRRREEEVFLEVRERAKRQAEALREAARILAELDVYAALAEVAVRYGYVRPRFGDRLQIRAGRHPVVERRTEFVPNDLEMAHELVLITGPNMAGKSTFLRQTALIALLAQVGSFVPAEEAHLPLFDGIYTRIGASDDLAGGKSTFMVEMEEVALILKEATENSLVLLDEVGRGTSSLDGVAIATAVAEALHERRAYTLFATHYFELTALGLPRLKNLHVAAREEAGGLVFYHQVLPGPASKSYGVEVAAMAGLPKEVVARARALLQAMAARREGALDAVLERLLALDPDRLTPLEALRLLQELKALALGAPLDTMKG

For series [2], the target named is T1, Taq MutS(C42A,T469C)-Cy3. This is another data set of the same source.
The target in series [3] is T1, Taq MutS(C42A,T469C)-Cy3. This is another data set of the same source.
Series [4] addresses T1, Taq MutS(C42A,T469C)-Cy3. The source holds these as a separate data set.

B1: 100 bp duplex (dsDNA)
DNA 1: GTTACCGATACGATACGAATAGGCATATCTGCACGTTTCTCACGAGGCGCCGCTAGACTGATCTGGAGCTTAATTGCCTGCCGGAGCTAAAGACGTTCCA
DNA 2: TGGAACGTCTTTAGCTCCGGCAGGCAATTAAGCTCCAGATCAGTCTAGCGGCGCCTCGTGAGAAACGTGCAGATATGCCTATTCGTATCGTATCGGTAAC
modifications: amino-C6 dT (Cy5 site)
Consider B1, for which the binding result in series [1] is recorded as “binds”.

B2: 100 bp +dT mismatch DNA (100/101 nt) (dsDNA)
DNA 1: B1 DNA 1
DNA 2: TGGAACGTCTTTAGCTCCGGCAGGCAATTAAGCTCCAGATCAGTCTAGCGTGCGCCTCGTGAGAAACGTGCAGATATGCCTATTCGTATCGTATCGGTAAC
modifications: amino-C6 dT (Cy5 site)
With B2, in series [1], the binding result is recorded as “binds”.

B3: 74 bp duplex, both ends blocked (dsDNA)
DNA 1: ATTCAGCTGTACCCAATTCACTCTACGACGAGGCGTCGCTAGCGTCGCATCCTGCTGTAAGTTTCATGTCCACC
DNA 2: GGTGGACATGAAACTTACAGCAGGATGCGACGCTAGCGACGCCTCGTCGTAGAGTGAATTGGGTACAGCTGAAT
modifications: amino-C6 dT (Cy5 site)
For B3, the Kd in series [2] stood at 128 ± 12 nM.

B4: +dT mismatch DNA with dT10 ssDNA tail (74/85 nt) (dsDNA)
DNA 1: B3 DNA 1
DNA 2: TTTTTTTTTTGGTGGACATGAAACTTACAGCAGGATGCGACGCTAGCGTACGCCTCGTCGTAGAGTGAATTGGGTACAGCTGAAT
modifications: amino-C6 dT (Cy5 site)
In the case of B4, the binding result in series [3] was “binds”.

B5: +dT mismatch DNA (74/75 nt), both ends blocked (dsDNA)
DNA 1: B3 DNA 1
DNA 2: GGTGGACATGAAACTTACAGCAGGATGCGACGCTAGCGTACGCCTCGTCGTAGAGTGAATTGGGTACAGCTGAAT
modifications: amino-C6 dT (Cy5 site, nt 45 from 5' biotin)
As to B5, the equilibrium dissociation constant (Kd) in series [4] amounted to 16.2 ± 2.1 nM.
